“And” between values parts separate entries of the source, which are not always exact repeats. Equal entries are not always repeated.

A short description of assay [1]: apigenin glucosylation acceptor reaction with recombinant glucansucrases (microplate screening). The format is biochemical. The conditions noted are these: sucrose 146 mM, apigenin 2.5 mM, 3% DMSO, 30° C., 24 h, HPLC-UV 340 nm peak areas. As to the method: (§1) The enzymatic extracts obtained are used to carry out the flavonoid glucosylation enzymatic screening reactions. The enzymatic activity of each centrifuged cell lysate is evaluated in the microplate format, by final weight after 30 minutes incubation in the presence of a final concentration of 146 mM of sucrose, by assaying the reducing sugars with 3,5-dinitrosalicylic acid (DNS). Finally, after dilution in ultrapure water, the absorbance is read at 540 nm.
(§2) The flavonoid acceptor reactions are then carried out in deep-well microplates, in a volume of 300 μl, at final concentrations of sucrose of 146 mM and of flavonoid of 2.5 mM (apigenin) or 5 mM (naringenin) (initially dissolved in 100% DMSO), and 140 μl of centrifuged cell lysate.
(§3) The final DMSO concentration in the reaction medium is 3% (v/v).
(§4) The incubation is carried out at 30° C. and at 700 rpm. After 24 hours, the enzymes are denatured at 95° C. for 15 minutes. These microplates are stored at −80° C. with a view to rapid evaluation of the flavonoid glucosylation by liquid-phase chromatography coupled to mass spectrometry (HPLC-MS or LC-MS).
(§5) With a view to their analyses by HPLC-MS, the extensively homogenized reaction media are diluted to 1/30th in DMSO. The separation of the flavonoids and of their glucosylated forms is carried out in reverse phase with a ProntoSlL Eurobond® 53×3.0 mm 120-3-C18-AQ column (porosity of 120 Å, particle size of 3 μm, C18 grafting, Bischoff Chromatography, Germany).
(§6) The flavonoid glucosylation efficiency was determined from the following formula: Glucosylation efficiency=(Σ(area of the peak of glucosylated flavonoid(s)))/(Σ(area of the peak of glucosylated flavonoid(s))+area of the peak of residual aglycone flavonoid)×100
The flavonoid glucosylation efficiencies, expressed as a percentage, were calculated from the areas of the peaks of the various products analyzed, as described in example 1, by HPLC with a UV detector (340 nm) after 24 h of reaction.

The nature of assay [2]: naringenin glucosylation acceptor reaction with recombinant glucansucrases (microplate screening). In kind it is biochemical. The following applies: sucrose 146 mM, naringenin 5 mM, 3% DMSO, 30° C., 24 h, HPLC-UV 340 nm peak areas. As to the method:
as §1, §2, §3, §4, §5, §6
The flavonoid glucosylation efficiency was determined from the formula set out in example 2. The flavonoid glucosylation efficiencies, expressed as a percentage, were calculated from the areas of the peaks of the various products analyzed, as described in example 1, by HPLC with a UV detector (λ340 nm), after 24 h of reaction.

Take “α-1,2 BrS: wild-type glucansucrase α-1,2 BrS, SEQ ID NO: 11”: the apigenin glucosylation efficiency in assay [1] worked out at 2.5%. Also, in assay [2], the naringenin glucosylation efficiency was 26.8%.

B1: ASNp WT: wild-type recombinant amylosucrase from Neisseria polysaccharea (protein, UniProt Q9ZEU2 1-636, looked up)
Amylosucrase: MLTPTQQVGLILQYLKTRILDIYTPEQRAGIEKSEDWRQFSRRMDTHFPKLMNELDSVYGNNEALLPMLEMLLAQAWQSYSQRNSSLKDIDIARENNPDWILSNKQVGGVCYVDLFAGDLKGLKDKIPYFQELGLTYLHLMPLFKCPEGKSDGGYAVSSYRDVNPALGTIGDLREVIAALHEAGISAVVDFIFNHTSNEHEWAQRCAAGDPLFDNFYYIFPDRRMPDQYDRTLREIFPDQHPGGFSQLEDGRWVWTTFNSFQWDLNYSNPWVFRAMAGEMLFLANLGVDILRMDAVAFIWKQMGTSCENLPQAHALIRAFNAVMRIAAPAVFFKSEAIVHPDQVVQYIGQDECQIGYNPLQMALLWNTLATREVNLLHQALTYRHNLPEHTAWVNYVRSHDDIGWTFADEDAAYLGISGYDHRQFLNRFFVNRFDGSFARGVPFQYNPSTGDCRVSGTAAALVGLAQDDPHAVDRIKLLYSIALSTGGLPLIYLGDEVGTLNDDDWSQDSNKSDDSRWAHRPRYNEALYAQRNDPSTAAGQIYQGLRHMIAVRQSNPRFDGGRLVTFNTNNKHIIGYIRNNALLAFGNFSEYPQTVTAHTLQAMPFKAHDLIGGKTVSLNQDLTLQPYQVMWLEIA
As to B1, the apigenin glucosylation efficiency is 0.5±0.5% and 0.5% in assay [1]; 0.6% in assay [1] (listed as A289A); 0.1% in assay [1] (listed as D394D); 0.8% in assay [1] (listed as F229F); 0.8% in assay [1] (listed as F290F); 0.8% in assay [1] (listed as I228I). Besides, the values for the apigenin glucosylation efficiency in assay [1] (listed as I330I), in assay [1] (listed as R226R) and in assay [1] (listed as V331V) were 0.8%, 0.3% and 0.2%, respectively. The naringenin glucosylation efficiency in assay [2] was 4.7±1.7% and 4.7%; in assay [2] (listed as A289A) it was 3.4%; in assay [2] (listed as D394D), 0.0%; in assay [2] (listed as F229F), 0.0%; in assay [2] (listed as F290F), 0.0%; in assay [2] (listed as I228I), 0.0%. Also, the naringenin glucosylation efficiency is reported as 0.0% in assay [2] (listed as I330I), 2.5% in assay [2] (listed as R226R), 6.0% in assay [2] (listed as R446R) and 4.7% in assay [2] (listed as V331V).

B2: V331A: ASNp amylosucrase single mutant (protein, UniProt Q9ZEU2 1-636, looked up, variant V331A)
Amylosucrase: MLTPTQQVGLILQYLKTRILDIYTPEQRAGIEKSEDWRQFSRRMDTHFPKLMNELDSVYGNNEALLPMLEMLLAQAWQSYSQRNSSLKDIDIARENNPDWILSNKQVGGVCYVDLFAGDLKGLKDKIPYFQELGLTYLHLMPLFKCPEGKSDGGYAVSSYRDVNPALGTIGDLREVIAALHEAGISAVVDFIFNHTSNEHEWAQRCAAGDPLFDNFYYIFPDRRMPDQYDRTLREIFPDQHPGGFSQLEDGRWVWTTFNSFQWDLNYSNPWVFRAMAGEMLFLANLGVDILRMDAVAFIWKQMGTSCENLPQAHALIRAFNAVMRIAAPAAFFKSEAIVHPDQVVQYIGQDECQIGYNPLQMALLWNTLATREVNLLHQALTYRHNLPEHTAWVNYVRSHDDIGWTFADEDAAYLGISGYDHRQFLNRFFVNRFDGSFARGVPFQYNPSTGDCRVSGTAAALVGLAQDDPHAVDRIKLLYSIALSTGGLPLIYLGDEVGTLNDDDWSQDSNKSDDSRWAHRPRYNEALYAQRNDPSTAAGQIYQGLRHMIAVRQSNPRFDGGRLVTFNTNNKHIIGYIRNNALLAFGNFSEYPQTVTAHTLQAMPFKAHDLIGGKTVSLNQDLTLQPYQVMWLEIA
Consider B2, for which the apigenin glucosylation efficiency in assay [1] is recorded as 0.5%. The naringenin glucosylation efficiency in assay [2] is on record as 0.0%.

B3: DSR-S vardelΔ4N S512C: mutant of truncated DSR-S, SEQ ID NO: 10 (protein)
chain: TQQVSGKYVEKDGSWYYYFDDGKNAKGLSTIDNNIQYFYESGKQAKGQYVTIDNQTYYFDKGSGDELTGLQSIDGNIVAFNDEGQQIFNQYYQSENGTTYYFDDKGHAATGIKNIEGKNYYFDNLGQLKKGFSGVIDGQIMTFDQETGQEVSNTTSEIKEGLTTQNTDYSEHNAAHGTDAEDFENIDGYLTASSWYRPTGILRNGTDWEPSTDTDFRPILSVWWPDKNTQVNYLNYMADLGFISNADSFETGDSQSLLNEASNYVQKSIEMKISAQQSTEWLKDAMAAFIVAQPQWNETSEDMSNDHLQNGALTYVNSPLTPDANSNFRLLNRTPTNQTGEQAYNLDNSKGGFELLLANQEDNSNVVVEAEQLNWLYYLMNFGTITANDADANFDGIRVDAVDNVDADLLQIAADYFKLAYGVDQNDATANQHLSILEDWSHNDPLYVTDQGSNQLTMDDYVHTQLIWSLTKSSDIRGTMQRFVDYYMVDRSNDSTENEAIPNYSFVRAHDCEVQTVIAQIVSDLYPDVENSLAPTTEQLAAAFKVYNEDEKLADKKYTQYNMASAYAMLLTNKDTVPRVYYGDLYTDDGQYMATKSPYYDAINTLLKARVQYVAGGQSMSVDSNDVLTSVRYGKDAMTASDTGTSETRTEGIGVIVSNNAELQLEDGHTVTLHMGAAHKNQAYRALLSTTADGLAYYDTDENAPVAYTDANGDLIFTNESIYGVQNPQVSGYLAVWVPVGAQQDQDARTASDTTTNTSDKVFHSNAALDSQVIYEGFSNFQAFATDSSEYTNVVIAQNADQFKQWGVTSFQLAPQYRSSTDTSFLDSIIQNGYAFTDRYDLGYGTPTKYGTADQLRDAIKALHASGIQAIADWVPDQIYNLPEQELATVTRTNSFGDDDTDSDIDNALYVVQSRGGGQYQEMYGGAFLEELQALYPSLFKVNQISTGVPIDGSVKITEWAAKYFNGSNIQGKGAGYVLKDMGSNKYFKVVSNTEDGDYLPKQLTNDLSETGFTHDDKGIIYYTLSGYRAQNAFIQDDDNNYYYFDKTGHLVTGLQKINNHTYFFLPNGIELVKSFLQNEDGTIVYFDKKGHQVFDQYITDQNGNAYYFDDAGVMLKSGLATIDGHQQYFDQNGVQVKDKFVIGTDGYKYYFEPGSGNLAILRYVQNSKNQWFYFDGNGHAVTGFQTINGKKQYFYNDGHQSKGEFIDADGDTFYTSATDGRLVTGVQKINGITYAFDNTGNLITNQYYQLADGKYMLLDDSGRAKTGFVLQDGVLRYFDQNGEQVKDAIIVDPDTNLS
modifications: Leuconostoc mesenteroides
Turning to B3, the apigenin glucosylation efficiency in assay [1] and in assay [1] (listed as S512C) was 13.9% throughout. The naringenin glucosylation efficiency in assay [2] is on record as 0.0%.

The record behind these values is patent US10647739B2, “Flavonoids O-A-glucosylated on the B cycle, method for the production thereof and uses” (Institut National de la Recherche Agronomique, priority 2014, dated 2020).
